Test results: PMC5290487

These substances were tested against MK2 (mitogen-activated protein kinase-activated protein kinase 2), endogenous in COS-1 cells (assay: co-immunoprecipitation (IP of endogenous MK2, western blot for PDE4A5), quantified). Conditions: COS-1 cell lysates; parent: est. 100; read off a plot.

Substance	percent of parent (% binding of MK2 in Wt IP)
PDE4A5 (long PDE4A isoform), wild type (from UniProt P54748-1) F141A	58
PDE4A5 (long PDE4A isoform), wild type (from UniProt P54748-1) F141A; L142A; Y143A	1.5
PDE4A5 (long PDE4A isoform), wild type (from UniProt P54748-1) L142A	73
PDE4A5 (long PDE4A isoform), wild type (from UniProt P54748-1) Y143A	79

Target: MK2 (mitogen-activated protein kinase-activated protein kinase 2), endogenous in COS-1 cells
Assay: as above
Conditions: COS-1 cell lysates; parent: est. 100; read off a plot
Remark: another data set of the same source

Substance	percent of parent (% binding of MK2 in Wt IP)
PDE4A5 (long PDE4A isoform), wild type (from UniProt P54748-1) F141A; L142A; Y143A	2
PDE4A5 (long PDE4A isoform), wild type (from UniProt P54748-1) F693A; Q694A; F695A	63
PDE4A5 (long PDE4A isoform), wild type (from UniProt P54748-1) I654A; L655A; D656A	88
PDE4A5 (long PDE4A isoform), wild type (from UniProt P54748-1) T698A; L699A; E700A; E701A	67
PDE4A5 (long PDE4A isoform), wild type (from UniProt P54748-1) W664A; Y665A; H666A; S667A	80
